Target: caleosin 2 (CLO2), Cub fusion (A. thaliana, UniProt Q9FLN9 1-243)
Assay: two-hybrid

Sequence of caleosin 2 (CLO2), Cub fusion (Q9FLN9 whole entry, the tested form may be a part): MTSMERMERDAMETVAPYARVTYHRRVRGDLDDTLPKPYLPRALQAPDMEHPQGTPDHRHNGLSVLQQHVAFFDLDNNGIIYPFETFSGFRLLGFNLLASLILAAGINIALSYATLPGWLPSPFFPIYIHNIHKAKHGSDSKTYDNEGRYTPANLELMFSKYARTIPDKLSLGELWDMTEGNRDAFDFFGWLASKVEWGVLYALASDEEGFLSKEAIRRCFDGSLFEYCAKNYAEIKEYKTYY

B1: autophagy-related protein 8b (ATG8b), NubG fusion (natural protein, A. thaliana, UniProt Q9XEB5 1-117, looked up)
chain: MEKNSFKLSNPLEMRMAESTRIRAKYPERVPVIVEKAGQSDVPDIDKKKYLVPADLTIGQFVYVVRKRIKLGAEKAIFVFVKNTLPPTAALMSAIYEEHKDEDGFLYMTYSGENTFG
fold weaker β-galactosidase activity (against CLO1, CLO3 and OLE1): 2 fold

Reference: publication doi:10.1101/2023.04.04.535563 (bioRxiv, 2023)
